In patent US9150649B2, “Potent conjugates and hydrophilic linkers” (priority 2008, dated 2015):

Settings: mouse, in vivo, iv, 12 mg/kg
Method: CD1 mice were injected intravenously, by a single bolus, of 5 mg/kg conjugates (antibody-based dose; 3 mice per group). Plasma samples were collected at several time points up to 4 weeks. The plasma samples were analyzed for antibody concentration and for conjugate concentration using ELISA. For antibody ELISA, the plasma samples were added to microtiter plates containing coated, immobilized goat-anti-human IgG (H+L) antibody, washed, and detected using horseradish peroxidase-conjugated goat-anti-human IgG (Fe) antibody. For conjugate concentration, the plasma samples were added to microtiter plates containing coated, immobilized goat-anti-human IgG (H+L) antibody, washed, and detected using biotinylated anti-maytansine antibody and alkaline phosphatase-conjugated streptavidin.

B1: unconjugated antibody: unconjugated humanized C242 antibody, binds the CanAg antigen (antibody, chains of the INN, looked up, V domains shown)
VH: QVQLVQSGAEVKKPGETVKISCKASDYTFTYYGMNWVKQAPGQGLKWMGWIDTTTGEPTYAQKFQGRIAFSLETSASTAYLQIKSLKSEDTATYFCARRGPYNWYFDVWGQGTTVTVSS
VL: DIVMTQSPLSVPVTPGEPVSISCRSSKSLLHSNGNTYLYWFLQRPGQSPQLLIYRMSNLVSGVPDRFSGSGSGTAFTLRISRVEAEDVGVYYCLQHLEYPFTFGPGTKLELK
Which “area under the curve (AUC)” value does the source give for B1 here?
The value was 38798 µg·h/mL.
